Measured values as given in US20210269549A1, “ANTI-SAS1B ANTIBODIES, ASSOCIATED METHODS OF USE, AND COMPOSITIONS AND METHODS FOR DETECTING AND TREATING CANCER” (UNIVERSITY OF VIRGINIA PATENT FOUNDATION, priority 2015, published 2021).
Positions count from the first letter of the chain named.

T1: recombinant human SAS1B antigen (Homo sapiens, UniProt Q6HA08)
T1 sequence (Q6HA08 24-431): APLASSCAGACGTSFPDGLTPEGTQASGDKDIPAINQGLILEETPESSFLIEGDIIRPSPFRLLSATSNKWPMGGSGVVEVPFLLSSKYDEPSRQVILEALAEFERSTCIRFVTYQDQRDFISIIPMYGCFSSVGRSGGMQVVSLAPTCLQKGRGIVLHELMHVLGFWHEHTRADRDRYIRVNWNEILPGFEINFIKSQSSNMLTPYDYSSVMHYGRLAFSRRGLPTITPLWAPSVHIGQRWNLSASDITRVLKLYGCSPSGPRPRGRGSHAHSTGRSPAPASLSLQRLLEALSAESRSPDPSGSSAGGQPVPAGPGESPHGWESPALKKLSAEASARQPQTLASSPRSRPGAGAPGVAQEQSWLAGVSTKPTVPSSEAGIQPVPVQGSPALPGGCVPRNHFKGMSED

B1: SB2: mouse anti-human SAS1B monoclonal antibody, IgG2b; VH SEQ ID NO:14, VL SEQ ID NO:15 (antibody, listed as Mus musculus, V domains shown)
VH: EVQLQQSGPELVKPGSSVKISCKASGYTFTDYNMVWVKQSHGKSLEWIGAVNPNNGGTSYNQKFKGKATLTVDKSSSTAYMELRSLTSEDSAVYYCVPNWDWFAYWGQGTLVTVSA
VL: DVLMTQTPLSLPVSLGDQASISCRSSQSLVHSNGNTYLEWYLQKPGQSPNLLIYKVSNRFSGVPDRFSGSGSGTDFTLKISRVEAEDLGVYYCFQGSHVPFTFGSGTKLEIK
B2: SB4: mouse anti-human SAS1B monoclonal antibody, IgG2a; VH SEQ ID NO:16, VL SEQ ID NO:17 (antibody, listed as Mus musculus, V domains shown)
VH: B1 VH with A24P, V37M, V51I, S59T, V97A
VL: B1 VL with L29I, V30L, N50K
B3: SB5: mouse anti-human SAS1B monoclonal antibody, IgG2b; VH SEQ ID NO:16, VL SEQ ID NO:18 (antibody, listed as Mus musculus, V domains shown)
VH: B1 VH with A24P, V37M, V51I, S59T, V97A
VL: B1 VL with T7I, L29I, V30L, N50K

What was measured:
[1] = tested on: human pancreatic cancer cell MPanc96; assay: ADC cytotoxicity assay (total cellular ATP), MPanc96; format: cell-based; conditions: 0.1 nM mAb, Fab-DMDM constant at 15 nM, ~72 hours
Protocol: The cytotoxic effect of anti-human SAS1B mAbs SB2, SB4, SB5 on human pancreatic cancer cell MPanc96 was determined by ADC assay. Human pancreatic cancer cells MPanc96 were seeded in triplicate on 96 well plates (1100 cells per well) overnight and then treated with SB2, SB4, SB5, and […] (anti-CABYR) and anti-mouse Fab-cleavable-Duocarmycin complex for ˜72 hours. The presence of viable live cells per well was measured by total cellular ATP content in relative luminescence unit (RLU). […] The anti-SAS1B mAbs SB2, SB4, and SB5 killed 80%, 64%, 57% of cells, respectively, at 1 nM concentration when Fab-DMDM was kept constant at 15 nM for all primary antibody dilutions. SB2 killed 67% of cells at 0.1 nM concentration. […] Staurosporine, a general protein kinase inhibitor, which induces apoptosis, was used as a positive control and DMSO was used as a negative control. The data are shown in FIG. 7A-B and represent an average of triplicate experiments.

[2] = tested on: renal cell carcinoma cell line (M1); assay: Morphology of renal cell carcinoma cell line (M1) after 93 h of antibody drug treatment; format: cell-based; conditions: 1 nM mAb with 15 nM Fab-DMDM
Protocol: The morphology of renal cell carcinoma cell line (M1) after 93 h of anti-EGFR antibody drug treatment was examined.

[3] = tested on: human uterine cancer cells (MMMT539); assay: Antibody drug conjugate cytotoxicity (ADC) assay, MMMT539; format: cell-based; conditions: 0.1 nM mAb, Fab-DMDM constant at 15 nM, ~90 h
Protocol: The cytotoxic effect of anti-human SAS1B mAbs SB2 and SB5 on human uterine cancer cells (MMMT539) was examined by antibody drug conjugate cytotoxicity (ADC) assay. Human uterine cancer cells MMMT539 were seeded in triplicate on 96 well plate overnight and then treated with SB2 or SB5 and anti-mouse Fab-cleavable-Duocarmycin complex for ˜90 h. The presence of viable live cells per well was measured by total cellular ATP content in relative luminescence unit (RLU). Viability of control live cells (100%) was determined from average of 9 wells in terms of total cellular ATP (in RLU) containing the constant 15 nM Fab-CL-DMDM for each set of antibody/reagent. […] Staurosporine, a general protein kinase inhibitor, was used to induce apoptosis in 1% DMSO as a positive control for the assay.

[4] = biological target: T1, recombinant human SAS1B antigen; assay: Capture assay by sandwich ELISA; format: binding; conditions: SB2 coupled to magnetic beads, SB5 coupled to HRP as detection agent, 96 well ELISA format
Description: The antibodies were used to develop a capture assay by sandwich ELISA. The support was a magnetic bead (MB) coupled to SB2, SB3, SB4, or SB5 mAbs. The antigen was a recombinant human SAS1B antigen. Detection was accomplished with mAbs SB2, SB3, SB4, SB5 conjugated with HRP. A HRP substrate was used and TMB was used for quantitation.
The retention of HRP activity after conjugations to SASB1 SB2, SB3, SB4, SB5, and anti-CABYR monoclonal antibody 3A4 was examined. The assay method detected 0.2 femtomole of IgGs. Where SB2 is coupled to magnetic beads and SB5 coupled to HRP is used as a detection agent in a 96 well ELISA format 2.7 pmole/ml of rhSAS1B can be detected.

[5] = tested on: uterine cancer cell line (MMMT539); assay: Morphology of uterine cancer cells after 93 h of anti-SAS1B antibody drug treatment; format: cell-based, human; conditions: 0.1 nM mAb with 15 nM Fab-DMDM
Protocol: The morphology of uterine cancer cell line (SNU539) and uterine cancer cell line (MMMT539) after 93 h of anti-SAS1B antibody drug treatment were examined.

[6] = tested on: MPanc96 cells (pancreatic ductal adenocarcinoma cell line); assay: Live indirect immunofluorescence cell surface staining, MPanc96; format: cell-based, human; conditions: for Cells staining for cell surface SAS1B: MPanc96, primary antibody 20 ug/mL; for Immunoreaction with cell surface localized SAS1B: live MPanc96, primary antibodies 20 ug/mL
Protocol: (§1) Live MPanc96 cells (pancreatic ductal adenocarcinoma cell line) were incubated with different anti-SAS1B monoclonal antibodies (as well as DAPI stain) for nucleus localization. Cells were fixed and permeabilized after primary and secondary antibody incubation thus fluorescence staining observed represents surface localized SAS1B. Monoclonal antibodies SB4 and SB5 were used, as well as normal rabbit or mouse IgG's as a negative control. All primary antibodies were used at a concentration of 20 ug/mL.
(§2) The live indirect immunofluorescence protocol is as follows. The cells were dissociated with Acutase and plated on fibronectin coated coverslips. MPanc96 cells were allowed to grow 2-3 days and 366 cells were allowed to grow for 3-4 days. The cells were blocked (blocking 1 solution) with 5% NGS in media for 30 min at RT and then blocked with 5% NGS in chilled media+0.1% sodium azide (blocking 2 solution) for 30 min on ice. The primary antibody (SB4, SB5 or control) was added at 20 ug/mL in blocking 2 solution for 2 hours on ice at 4° C. The cells were washed 3× for 5 minutes each on ice. The secondary antibody (goat anti-Ms/Rb Alexa488 (1:500)) was added in blocking 2 solution for 1 hour in dark on ice at 4° C. The cells were washed 3× for 5 min each on ice and then were fixed with 4% PFA-PBS for 15 min in the dark at RT. The cells were washed 2× for 5 min each at RT and then stained with DAPI stain (1:1000) for 10 min at RT. The cells were washed 2× for 5 min each at RT and then were treated with prolong gold antifade. […] About 10-20% of the SB5 treated cells stained for SASB1.

[7] = tested on: PDAC cell line known as 366; assay: Live indirect immunofluorescence cell surface staining, 366; format: cell-based, human; conditions: for Cells staining for cell surface SAS1B: 366, primary antibody 20 ug/mL; for Recognition of cell surface SAS1B: live 366 cells, primary antibodies 20 ug/mL
Protocol: as §1, §2

Row | rhSAS1B that can be detected [4] [pmol/mL] | Molecule | Cells killed [1] [%] | Cell killing and inhibition of cell proliferation (morphology) [2] | Cancer cells killed [3] [%] | Cell killing and inhibition of cell proliferation (morphology) [5] | Cells staining for cell surface SAS1B [6] | Immunoreaction with cell surface localized SAS1B [6] | Cells staining for cell surface SAS1B [7] | Recognition of cell surface SAS1B [7]
1 | 2.7 | B1 | 67 | a large number of rounded dead cells | 87 | clear cell killing and inhibition of cell proliferation |  |  |  | 
2 |  | B2 |  |  |  |  | 65-80% | immunoreact with cell surface localized SAS1B | 65-80% | recognize cell surface SAS1B in pancreatic cancer cell lines
3 | 2.7 | B3 |  | clear cell killing and inhibition of cell proliferation properties | 75 | clear cell killing and inhibition of cell proliferation | 10-20% | immunoreact with cell surface localized SAS1B | 10-20% | recognize cell surface SAS1B in pancreatic cancer cell lines
